In one assay the target is T1, Chs6-6xHis (S. cerevisiae, UniProt P40955 1-746).
T1 construct: Chs6, S. cerevisiae; The Chs6 chain of m1, written alone for the pairs that touch in the crystal structure; The end of the tag is read from the printed name; also called His-tagged Chs6; source: recombinant, purified with Chs5(1–77) as described (Paczkowski et al., 2012); not shown: His6, C-terminal, kept
T1 sequence (looked up): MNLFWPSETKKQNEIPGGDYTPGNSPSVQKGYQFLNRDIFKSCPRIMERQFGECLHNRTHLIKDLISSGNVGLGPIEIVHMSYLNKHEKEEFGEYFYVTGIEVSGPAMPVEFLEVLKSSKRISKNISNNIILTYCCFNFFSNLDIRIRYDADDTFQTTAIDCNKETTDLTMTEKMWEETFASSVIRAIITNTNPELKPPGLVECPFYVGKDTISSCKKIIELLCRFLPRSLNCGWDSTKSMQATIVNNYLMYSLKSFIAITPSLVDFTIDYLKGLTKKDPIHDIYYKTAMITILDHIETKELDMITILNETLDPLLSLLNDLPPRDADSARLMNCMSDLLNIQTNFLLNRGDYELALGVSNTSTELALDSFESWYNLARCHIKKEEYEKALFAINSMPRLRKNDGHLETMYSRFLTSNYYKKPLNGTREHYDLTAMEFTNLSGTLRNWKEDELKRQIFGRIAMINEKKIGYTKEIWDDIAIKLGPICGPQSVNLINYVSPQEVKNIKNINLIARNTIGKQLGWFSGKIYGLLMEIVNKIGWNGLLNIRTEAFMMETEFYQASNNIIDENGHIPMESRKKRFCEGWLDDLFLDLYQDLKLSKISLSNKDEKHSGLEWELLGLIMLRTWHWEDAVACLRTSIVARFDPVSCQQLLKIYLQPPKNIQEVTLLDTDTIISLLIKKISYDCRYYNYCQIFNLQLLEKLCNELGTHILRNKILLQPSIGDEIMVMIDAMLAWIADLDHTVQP
Put plainly: crystal structure; Chs5(1–77)/Chs6-6xHis exomer co-crystallised with Chs3 peptide, hanging drop vapor diffusion; 0.3 M ammonium sulfate, 0.1 M citric acid pH 4.0; molar ratio 3.85:1 peptide:exomer. The settings on record: both partners purified.

Assay [1] concerns the target T2, Recombinant "core" exomer complex (Chs5 residues 1–77 and Chs6-6xHis) (S. cerevisiae, UniProt Q12114 1-77; P40955 1-746).
T2 construct: Chs5, S. cerevisiae, residues 1–77; Chs6, S. cerevisiae; The end of the 6xHis tag is read from the printed name Chs6-6xHis; also called Chs5(1–77)/Chs6-6xHis exomer complex; purified exomer; source: recombinant, purified as described for the Chs5(1–299)/Chs6-6xHis construct (Paczkowski et al., 2012); not shown: His6, C-terminal, kept
T2 sequence (looked up) 1: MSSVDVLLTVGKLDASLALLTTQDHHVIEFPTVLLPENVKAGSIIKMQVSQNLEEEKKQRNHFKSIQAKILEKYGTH
T2 sequence (looked up) 2: T1 sequence (looked up)
Put plainly: pull-down; GST-Chs3 fragments held on glutathione resin; 10 μl of 5 mg/ml purified exomer added to resin in 500 μl PBS + 1 mM DTT, ~1 h at 4°C, washed 3 times; exomer detected by Western blot with anti-6xHis antibody (by Coomassie staining in Figure 5C). The following applies: both partners purified. (In general: A western blot detects proteins with antibodies after separation by electrophoresis.)

B1: Chs5(1–77) (domain or fragment, S. cerevisiae, UniProt Q12114 1-77, looked up)
chain: T2 sequence (looked up) 1
notes: Chs5, S. cerevisiae, residues 1–77; The Chs5 chain of m1, written alone for the pair that touches in the crystal structure; also called Chs5 residues 1–77; truncated Chs5; source: recombinant, purified with Chs6-6xHis as described (Paczkowski et al., 2012)
Regarding B1, the binding result with Chs6-6xHis was “binds”.

B2: GST-Chs3 fragment, residues 28–52 (domain or fragment, S. cerevisiae, UniProt P29465 28-52, looked up)
chain: HSVGSGAPHRQGSLVRPERSRLNNP
notes: Chs3 (chitin synthase), S. cerevisiae, residues 28–52; Vector pGEX-2T; the end of GST is read from the printed name GST-Chs3; source: E. coli Rosetta2 (DE3), isolated from cleared lysate on glutathione resin; not shown: GST, N-terminal, kept
B2: the binding result in assay [1] is “binds”.

B3: GST-Chs3(1–52) (domain or fragment, S. cerevisiae, UniProt P29465 1-52, looked up)
chain: MTGLNGDDPDDYYLNLNQDEESLLRSRHSVGSGAPHRQGSLVRPERSRLNNP
notes: Chs3 (chitin synthase), S. cerevisiae, residues 1–52; Vector pGEX-2T; the end of GST is read from the printed name GST-Chs3; also called Residues 1–52; wild-type GST-Chs3(1–52) fragment; source: E. coli Rosetta2 (DE3), isolated from cleared lysate on glutathione resin; not shown: GST, N-terminal, kept
In the case of B3, the binding result in assay [1] is “binds”.

B4: GST-Chs3 fragment, residues 1–52 with residues 10–27 deleted (domain or fragment, S. cerevisiae, UniProt P29465 1-52, looked up)
chain: MTGLNGDDPHSVGSGAPHRQGSLVRPERSRLNNP
notes: Chs3 (chitin synthase), S. cerevisiae, residues 1–52 lacking residues 10–27; Vector pGEX-2T; the end of GST is read from the printed name GST-Chs3; source: E. coli Rosetta2 (DE3), isolated from cleared lysate on glutathione resin; not shown: GST, N-terminal, kept
Turning to B4, the binding result in assay [1] is recorded as “binds”.

B5: Chs3 peptide matching residues 10–27 (peptide, UniProt P29465 10-27, looked up)
peptide: DDYYLNLNQDEESLLRSR
notes: Chs3 (chitin synthase), S. cerevisiae, residues 10–27; only residues 12–25 are visible in the structure; also called peptide of Chs3 residues 10–27; source: synthetic peptide (Genscript, 95% purity)
For B5, the binding result in the assay with Chs6-6xHis was “binds”.
